According to patent publication US6410715 (QUESTCOR PHARMACEUTICALS, dated 2002):
One block for each molecule: values may come before it.

Key:
[1] = molecular target: eIF-4E of human HTK-143 cells (human) (UniProt P06730); assay: cell-based or functional assay
[2] = molecular target: 4E-BP1 prepared from insulin-treated rat adipose tissue (rat) (UniProt Q62622); assay: far-Western, pool 2, insulin-treated against untreated tissue of the same pool
[3] = molecular target: 4E-BP1 prepared from insulin-treated rat adipose tissue (rat) (UniProt Q62622); assay: far-Western, pool 1, insulin-treated against untreated tissue of the same pool
[4] = molecular target: 4E-BP1 prepared from insulin-treated rat adipose tissue (rat) (UniProt Q62622); assay: far-Western, pool 3, insulin-treated against untreated tissue of the same pool
[5] = molecular target: 4E-BP1 prepared from untreated rat adipose tissue (rat) (UniProt Q62622); assay: far-Western on blotted heat-stable adipose tissue proteins, pool 3, no insulin
4E-BP1 prepared from untreated rat adipose tissue (rat), sequence (Q62622 2-117 limits assumed): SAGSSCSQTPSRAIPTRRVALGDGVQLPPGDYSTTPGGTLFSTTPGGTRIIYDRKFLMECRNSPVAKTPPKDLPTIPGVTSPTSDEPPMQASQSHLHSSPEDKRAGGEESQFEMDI

[6] = molecular target: 4E-BP1 prepared from insulin-treated rat adipose tissue (rat) (UniProt Q62622); assay: far-Western on blotted heat-stable adipose tissue proteins, pool 2, insulin 80 nM
[7] = molecular target: 4E-BP1 prepared from untreated rat adipose tissue (rat) (UniProt Q62622); assay: far-Western on blotted heat-stable adipose tissue proteins, pool 2, no insulin
[8] = molecular target: 4E-BP1 prepared from untreated rat adipose tissue (rat) (UniProt Q62622); assay: far-Western on blotted heat-stable adipose tissue proteins, pool 1, no insulin
[9] = molecular target: 4E-BP1 prepared from insulin-treated rat adipose tissue (rat) (UniProt Q62622); assay: far-Western on blotted heat-stable adipose tissue proteins, pool 3, insulin 80 nM
[10] = molecular target: 4E-BP1 prepared from insulin-treated rat adipose tissue (rat) (UniProt Q62622); assay: far-Western on blotted heat-stable adipose tissue proteins, pool 1, insulin 80 nM
[11] = molecular target: eIF-4E of rabbit reticulocyte lysate (rabbit, UniProt P29338 2-217); assay: cell-based or functional assay
eIF-4E of rabbit reticulocyte lysate, sequence (P29338 2-217 limits assumed): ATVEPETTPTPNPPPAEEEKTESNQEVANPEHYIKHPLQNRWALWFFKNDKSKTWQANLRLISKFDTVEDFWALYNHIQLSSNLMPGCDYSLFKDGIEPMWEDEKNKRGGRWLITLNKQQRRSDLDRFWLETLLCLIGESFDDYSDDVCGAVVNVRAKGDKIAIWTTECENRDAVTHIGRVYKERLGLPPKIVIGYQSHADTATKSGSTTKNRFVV

eIF-4E of human HTK-143 cells (human), sequence (P06730 2-217 limits assumed): as the sequence (P29338 2-217 limits assumed) above, with P15T, A16T, D173E counted along it
4E-BP1 prepared from insulin-treated rat adipose tissue (rat), sequence (Q62622 2-117 limits assumed): as the sequence (Q62622 2-117 limits assumed) above

- CAT (%), cap-dependent expression from pGEMCAT/EMC/LUC in HTK-143 cells co-transfected with pRc/CMV/4E-BP2 (% of reporter plasmid alone) [1]: 26
- CAT (%), cap-dependent expression from pGEMCAT/polio/LUC in HTK-143 cells co-transfected with pRc/CMV/4E-BP2 (% of reporter plasmid alone) [1]: 24
- inhibition of CAT expression in transfected HTK-143 cells [1]: 4 to 5 fold
Molecule: 4E-BP2 (human, protein of 120 amino acids)

- CAT (%), cap-dependent expression from pGEMCAT/EMC/LUC in HTK-143 cells co-transfected with pRc/CMV/4E-BP1 (% of reporter plasmid alone) [1]: 28
- CAT (%), cap-dependent expression from pGEMCAT/polio/LUC in HTK-143 cells co-transfected with pRc/CMV/4E-BP1 (% of reporter plasmid alone) [1]: 22
- inhibition of CAT expression in transfected HTK-143 cells [1]: 4 to 5 fold
Molecule: 4E-BP1 (human, protein of 118 amino acids)

- Fold reduction [2]: 3 fold
- Fold reduction [3]: 3.7 fold
- Fold reduction [4]: 3.6 fold
- Relative amount of HMK-eIF-4E bound (relative amount (Phosphorimager)) [5]: 214
- Relative amount of HMK-eIF-4E bound (relative amount (Phosphorimager)) [6]: 70
- Relative amount of HMK-eIF-4E bound (relative amount (Phosphorimager)) [7]: 210
- Relative amount of HMK-eIF-4E bound (relative amount (Phosphorimager)) [8]: 152
- Relative amount of HMK-eIF-4E bound (relative amount (Phosphorimager)) [9]: 60
- Relative amount of HMK-eIF-4E bound (relative amount (Phosphorimager)) [10]: 41
Molecule: 32P-labelled HMK-eIF-4E probe

- inhibition of translation of CAT (cap-dependent) [11]: ~5 fold
B1: GST-4E-BP2 fusion protein (other, not shown: a dimerising Fc or GST; large carriers; small tags and cut ends)
chain: MSSSAGSGHQPSQSRAIPTRTVAISDAAQLPHDYCTTPGGTLFSTTPGGTRIIYDRKFLLDRRNSPMAQTPPCHLPNIPGVTSPGTLIEDSKVEVNNLNNLNNHDRKHAVGDDAQFEMDI
